Measurements published in paper PMC8298264, “Function of cofactor Akirin2 in the regulation of gene expression in model human neutrophil-like HL60 cells” (Bioscience Reports, 2021).

B1: sp¦Q8WW12¦PCNP_HUMAN (protein, UniProt Q8WW12 2-178, looked up)
PEST proteolytic …: ADGKAGDEKPEKSQRAGAAGGPEEEAEKPVKTKTVSSSNGGESSSRSAEKRSAEEEAADLPTKPTKISKFGFAIGSQTTKKASAISIKLGSSKPKETVPTLAPKTLSVAAAFNEDEDSEPEEMPPEAKMRMKNIGRDTPTSAGPNSFNKGKHGFSDNQKLWERNIKSHLGNVHDQDN
B2: sp¦P10599¦THIO_HUMAN (protein, UniProt P10599 2-105, looked up)
Thioredoxin: VKQIESKTAFQEALDAAGDKLVVVDFSATWCGPCKMIKPFFHSLSEKYSNVIFLEVDVDDCQDVASECEVKCMPTFQFFKKGQKVGEFSGANKEKLEATINELV
B3: sp¦P54727¦RD23B_HUMAN (protein, UniProt P54727 1-409, looked up)
UV excision repair protein …: MQVTLKTLQQQTFKIDIDPEETVKALKEKIESEKGKDAFPVAGQKLIYAGKILNDDTALKEYKIDEKNFVVVMVTKPKAVSTPAPATTQQSAPASTTAVTSSTTTTVAQAPTPVPALAPTSTPASITPASATASSEPAPASAAKQEKPAEKPAETPVATSPTATDSTSGDSSRSNLFEDATSALVTGQSYENMVTEIMSMGYEREQVIAALRASFNNPDRAVEYLLMGIPGDRESQAVVDPPQAASTGAPQSSAVAAAAATTTATTTTTSSGGHPLEFLRNQPQFQQMRQIIQQNPSLLPALLQQIGRENPQLLQQISQHQEHFIQMLNEPVQEAGGQGGGGGGGSGGIAEAGSGHMNYIQVTPQEKEAIERLKALGFPEGLVIQAYFACEKNENLAANFLLQQNFDED
B4: sp¦Q9BY43¦CHM4A_HUMAN (protein, UniProt Q9BY43 1-222, looked up)
Charged multivesicular body …: MSGLGRLFGKGKKEKGPTPEEAIQKLKETEKILIKKQEFLEQKIQQELQTAKKYGTKNKRAALQALRRKKRFEQQLAQTDGTLSTLEFQREAIENATTNAEVLRTMELAAQSMKKAYQDMDIDKVDELMTDITEQQEVAQQISDAISRPMGFGDDVDEDELLEELEELEQEELAQELLNVGDKEEEPSVKLPSVPSTHLPAGPAPKVDEDEEALKQLAEWVS
B5: sp¦P49458¦SRP09_HUMAN (protein, UniProt P49458 2-86, looked up)
Signal recognition particle 9 …: PQYQTWEEFSRAAEKLYLADPMKARVVLKYRHSDGNLCVKVTDDLVCLVYKTDQAQDVKKIEKFHSQLMRLMVAKEARNVTMETE
B6: sp¦O43396¦TXNL1_HUMAN (protein, UniProt O43396 2-289, looked up)
Thioredoxin-like protein 1: VGVKPVGSDPDFQPELSGAGSRLAVVKFTMRGCGPCLRIAPAFSSMSNKYPQAVFLEVDVHQCQGTAATNNISATPTFLFFRNKVRIDQYQGADAVGLEEKIKQHLENDPGSNEDTDIPKGYMDLMPFINKAGCECLNESDEHGFDNCLRKDTTFLESDCDEQLLITVAFNQPVKLYSMKFQGPDNGQGPKYVKIFINLPRSMDFEEAERSEPTQALELTEDDIKEDGIVPLRYVKFQNVNSVTIFVQSNQGEEETTRISYFTFIGTPVQATNMNDFKRVVGKKGESH
B7: sp¦P52209¦6PGD_HUMAN (protein, UniProt P52209 1-483, looked up)
6-phosphogluconate …: MAQADIALIGLAVMGQNLILNMNDHGFVVCAFNRTVSKVDDFLANEAKGTKVVGAQSLKEMVSKLKKPRRIILLVKAGQAVDDFIEKLVPLLDTGDIIIDGGNSEYRDTTRRCRDLKAKGILFVGSGVSGGEEGARYGPSLMPGGNKEAWPHIKTIFQGIAAKVGTGEPCCDWVGDEGAGHFVKMVHNGIEYGDMQLICEAYHLMKDVLGMAQDEMAQAFEDWNKTELDSFLIEITANILKFQDTDGKHLLPKIRDSAGQKGTGKWTAISALEYGVPVTLIGEAVFARCLSSLKDERIQASKKLKGPQKFQFDGDKKSFLEDIRKALYASKIISYAQGFMLLRQAATEFGWTLNYGGIALMWRGGCIIRSVFLGKIKDAFDRNPELQNLLLDDFFKSAVENCQDSWRRAVSTGVQAGIPMPCFTTALSFYDGYRHEMLPASLIQAQRDYFGAHTYELLAKPGQFIHTNWTGHGGTVSSSSYNA
B8: sp¦O75937¦DNJC8_HUMAN (protein, UniProt O75937 2-253, looked up)
DnaJ homolog subfamily C …: AASGESGTSGGGGSTEEAFMTFYSEVKQIEKRDSVLTSKNQIERLTRPGSSYFNLNPFEVLQIDPEVTDEEIKKRFRQLSILVHPDKNQDDADRAQKAFEAVDKAYKLLLDQEQKKRALDVIQAGKEYVEHTVKERKKQLKKEGKPTIVEEDDPELFKQAVYKQTMKLFAELEIKRKEREAKEMHERKRQREEEIEAQEKAKREREWQKNFEESRDGRVDSWRNFQANTKGKKEKKNRTFLRPPKVKMEQRE
B9: sp¦P68104¦EF1A1_HUMAN (protein, UniProt P68104 2-462, looked up)
Elongation factor 1-alpha 1: GKEKTHINIVVIGHVDSGKSTTTGHLIYKCGGIDKRTIEKFEKEAAEMGKGSFKYAWVLDKLKAERERGITIDISLWKFETSKYYVTIIDAPGHRDFIKNMITGTSQADCAVLIVAAGVGEFEAGISKNGQTREHALLAYTLGVKQLIVGVNKMDSTEPPYSQKRYEEIVKEVSTYIKKIGYNPDTVAFVPISGWNGDNMLEPSANMPWFKGWKVTRKDGNASGTTLLEALDCILPPTRPTDKPLRLPLQDVYKIGGIGTVPVGRVETGVLKPGMVVTFAPVNVTTEVKSVEMHHEALSEALPGDNVGFNVKNVSVKDVRRGNVAGDSKNDPPMEAAGFTAQVIILNHPGQISAGYAPVLDCHTAHIACKFAELKEKIDRRSGKKLEDGPKFLKSGDAAIVDMVPGKPMCVESFSDYPPLGRFAVRDMRQTVAVGVIKAVDKKAAGAGKVTKSAQKAQKAK
B10: sp¦P04075¦ALDOA_HUMAN (protein, UniProt P04075 2-364, looked up)
Fructose-bisphosphate …: PYQYPALTPEQKKELSDIAHRIVAPGKGILAADESTGSIAKRLQSIGTENTEENRRFYRQLLLTADDRVNPCIGGVILFHETLYQKADDGRPFPQVIKSKGGVVGIKVDKGVVPLAGTNGETTTQGLDGLSERCAQYKKDGADFAKWRCVLKIGEHTPSALAIMENANVLARYASICQQNGIVPIVEPEILPDGDHDLKRCQYVTEKVLAAVYKALSDHHIYLEGTLLKPNMVTPGHACTQKFSHEEIAMATVTALRRTVPPAVTGITFLSGGQSEEEASINLNAINKCPLLKPWALTFSYGRALQASALKAWGGKKENLKAAQEEYVKRALANSLACQGKYTPSGQAGAAASESLFVSNHAY
B11: sp¦O75792¦RNH2A_HUMAN (protein, UniProt O75792 1-299, looked up)
Ribonuclease H2 subunit A: MDLSELERDNTGRCRLSSPVPAVCRKEPCVLGVDEAGRGPVLGPMVYAICYCPLPRLADLEALKVADSKTLLESERERLFAKMEDTDFVGWALDVLSPNLISTSMLGRVKYNLNSLSHDTATGLIQYALDQGVNVTQVFVDTVGMPETYQARLQQSFPGIEVTVKAKADALYPVVSAASICAKVARDQAVKKWQFVEKLQDLDTDYGSGYPNDPKTKAWLKEHVEPVFGFPQFVRFSWRTAQTILEKEAEDVIWEDSASENQEGLRKITSYFLNEGSQARPRSSHRYFLERGLESATSL
B12: sp¦Q9HB71¦CYBP_HUMAN (protein, UniProt Q9HB71 2-228, looked up)
Calcyclin-binding protein: ASEELQKDLEEVKVLLEKATRKRVRDALTAEKSKIETEIKNKMQQKSQKKAELLDNEKPAAVVAPITTGYTVKISNYGWDQSDKFVKIYITLTGVHQVPTENVQVHFTERSFDLLVKNLNGKSYSMIVNNLLKPISVEGSSKKVKTDTVLILCRKKVENTRWDYLTQVEKECKEKEKPSYDTETDPSEGLMNVLKKIYEDGDDDMKRTINKAWVESREKQAKGDTEF

Tested on: human HL60 cells
Test: SWATH-MS proteomics, differential protein representation, akirin2 KO vs WT HL60 cells
Assay type: cell-based
Conditions: Over-represented in KO; KO vs WT HL60 cells
Experimental: Total proteins were extracted from WT and akirin2 KO HL60 cells using the AllPrep DNA/RNA/Protein Mini Kit (Qiagen) and protein concentration was determined using the BCA Protein Assay with BSA (Sigma–Aldrich) as standard. Protein extracts (150 µg per sample, n=3 biological replicates) from each WT and KO cells were trypsin digested using the FASP Protein Digestion Kit (Expedeon Ltd., Abcam, Cambridge, U.K.) and sequencing grade trypsin (Promega, Madison, WI, U.S.A.) following manufacturer’s recommendations. The resulting peptides were finally desalted on to OMIX Pipette tips C18 (Agilent Technologies, Santa Clara, CA, U.S.A.), dried down and stored at −20 °C until mass spectrometry analysis. […] Three micrograms of each protein digest from the three biological replicates of WT and akirin2 KO HL60 cells were used for the generation of the reference spectral ion library as part of the SWATH-MS analysis.
Peptides were eluted in a 120-min gradient from 5 to 30% solvent B in solvent A followed by 15-min gradient from 30 to 60% solvent B in solvent A (solvent A: 0.1% formic acid in water, solvent B: 0.1% formic acid in acetonitrile) and directly injected into the mass spectrometer for analysis. For IDA experiments, the mass spectrometer was set to scanning full spectra (350–1400 m/z) using 250 ms accumulation time per spectrum, followed by up to 50 MS/MS scans (100–1500 m/z). Candidate ions with a charge state between +2 and +5 counts per second above a minimum threshold of 100 were isolated for fragmentation. One MS/MS spectrum was collected for 100 ms, before adding those precursor ions to the exclusion list for 15 s (mass spectrometer operated by Analyst TF 1.6, AB Sciex). Dynamic background subtraction was turned off. MS/MS analyses were recorded in high-sensitivity mode with rolling collision energy on and a collision energy spread of 5. For SWATH quantitative analysis, six independent samples (three replicates from WT and akirin2 KO HL60 cells, 5 µg each) were subjected to the cyclic DIA of mass spectra using the SWATH variable windows calculator (V 1.0, AB Sciex) and the SWATH acquisition method editor (AB Sciex), similar to established methods. […] For these experiments, a 50-ms survey scan (350–1400 m/z) was acquired at the beginning of each cycle, and SWATH–MS/MS spectra were collected from 100–1500 m/z for 70 ms at high-sensitivity mode, resulting in a cycle time of 3.6 s. Collision energy for each window was determined according to the calculation for a charge +2 ion-centered upon the window with a collision energy spread of 15. To create a spectral library of all the detectable peptides in the samples, the IDA MS raw files were combined and subjected to database search in unison using ProteinPilot software v. 5.0.1 (AB Sciex) with the Paragon algorithm. […] The detected protein threshold was set at 0.05. An independent false discovery rate (FDR) analysis, using the target–decoy approach provided by Protein Pilot (AB Sciex; https://sciex.com/products/software/proteinpilot-software), was used to assess the quality of identifications. Positive identifications were considered when identified proteins reached 1% of global FDR. […] Global normalization was performed according to the Total Area Sums (TAS) of all detected proteins in the samples. […] Heatmaps were prepared using the Heatmapper (http://www.heatmapper.ca/expression/) with average linkage and Euclidean distance measurement method.

Row | Molecule | Fold Change | Log (Fold Change)
1 | B1 | 1.373 | 0.1375
2 | B2 | 1.394 | 0.1444
3 | B3 | 1.363 | 0.1346
4 | B4 | 1.396 | 0.1447
5 | B5 | 1.349 | 0.1301
6 | B6 | 1.348 | 0.1296
7 | B7 | 1.367 | 0.1359
8 | B8 | 1.352 | 0.1309

Same assay, conditions: SWATH-MS, akirin2 KO vs WT HL60 cells; over-represented in KO

Row | Molecule | Fold Change | Log (Fold Change)
9 | B9 | 1.443 | 0.1593
10 | B10 | 1.436 | 0.1572
11 | B11 | 1.47 | 0.1673
12 | B12 | 1.407 | 0.1482
